Assay results: patent US20240052047A1 (Pfizer, published 2024)

Molecular target: human IL27 receptor (IL27RA/gp130 heterodimer) on human cells (human, UniProt Q6UWB1 33-636; P40189 23-918)
Test: cell-based or functional assay

Sequence of human IL27 receptor (IL27RA/gp130 heterodimer) on human cells (Q6UWB1 33-636 limits assumed, chain 1 of 2): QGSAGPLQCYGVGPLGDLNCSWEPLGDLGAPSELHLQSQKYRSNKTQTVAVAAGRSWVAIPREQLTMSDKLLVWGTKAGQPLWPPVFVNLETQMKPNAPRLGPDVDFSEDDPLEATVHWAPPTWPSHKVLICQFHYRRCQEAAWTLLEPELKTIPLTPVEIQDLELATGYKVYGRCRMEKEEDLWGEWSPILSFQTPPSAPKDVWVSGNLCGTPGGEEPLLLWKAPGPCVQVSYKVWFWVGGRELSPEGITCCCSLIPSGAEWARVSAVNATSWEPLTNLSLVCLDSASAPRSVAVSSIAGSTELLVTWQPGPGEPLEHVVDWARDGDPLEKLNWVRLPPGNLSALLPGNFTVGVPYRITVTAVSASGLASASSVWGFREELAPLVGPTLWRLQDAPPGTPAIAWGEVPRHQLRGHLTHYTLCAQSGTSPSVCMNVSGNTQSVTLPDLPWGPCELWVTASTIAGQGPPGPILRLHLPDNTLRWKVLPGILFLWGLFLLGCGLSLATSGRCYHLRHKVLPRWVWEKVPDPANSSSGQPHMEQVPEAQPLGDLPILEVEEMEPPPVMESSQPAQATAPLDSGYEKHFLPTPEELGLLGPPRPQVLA
Sequence of human IL27 receptor (IL27RA/gp130 heterodimer) on human cells (P40189 23-918 limits assumed, chain 2 of 2): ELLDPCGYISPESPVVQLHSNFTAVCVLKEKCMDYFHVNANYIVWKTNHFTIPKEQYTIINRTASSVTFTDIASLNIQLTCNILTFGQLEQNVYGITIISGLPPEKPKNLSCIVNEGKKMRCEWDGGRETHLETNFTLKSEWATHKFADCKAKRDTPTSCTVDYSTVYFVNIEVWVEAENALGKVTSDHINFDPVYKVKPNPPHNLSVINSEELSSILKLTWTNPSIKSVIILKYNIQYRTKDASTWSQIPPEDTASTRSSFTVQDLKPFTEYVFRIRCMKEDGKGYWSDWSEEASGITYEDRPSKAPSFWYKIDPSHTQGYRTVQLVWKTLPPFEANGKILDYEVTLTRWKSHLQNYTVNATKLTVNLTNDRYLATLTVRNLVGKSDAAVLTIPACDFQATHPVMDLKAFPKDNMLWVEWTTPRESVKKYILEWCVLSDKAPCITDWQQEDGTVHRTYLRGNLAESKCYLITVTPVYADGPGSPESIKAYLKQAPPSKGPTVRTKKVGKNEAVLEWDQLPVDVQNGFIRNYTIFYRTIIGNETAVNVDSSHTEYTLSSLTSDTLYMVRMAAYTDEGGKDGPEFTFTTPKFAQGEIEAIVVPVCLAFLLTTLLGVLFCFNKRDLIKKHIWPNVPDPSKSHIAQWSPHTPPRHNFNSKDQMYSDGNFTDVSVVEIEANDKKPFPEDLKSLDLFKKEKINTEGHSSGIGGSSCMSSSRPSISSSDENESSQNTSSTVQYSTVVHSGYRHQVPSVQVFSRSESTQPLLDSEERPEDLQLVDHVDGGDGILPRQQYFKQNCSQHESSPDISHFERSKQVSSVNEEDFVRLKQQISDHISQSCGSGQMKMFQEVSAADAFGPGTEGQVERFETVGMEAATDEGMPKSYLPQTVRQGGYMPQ

B1: GBT-IL-27R-4933 (KiH-mFd format IL27RA/gp130 bispecific antibody) (bispecific antibody, human IgG1, kappa)
chain 1: DIQMTQSPSSLSASVGDRVTITCRASQSVSSSYLAWYQQKPGKAPKLLIYGTESRATGVPSRFSGSGSGTDFTLTISSLQPEDFATYYCQQYGGYPTFGGGTKVEIKRTVAAPSVFIFPPSDEQLKSGTASVVCLLNNFYPREAKVQWKVDNALQSGNSQESVTEQDSKDSTYSLSSTLTLSKADYEKHKVYACEVTHQGLSSPVTKSFNRGECDKTHTCPPCPAPEAAGAPSVFLFPPKPKDTLMISRTPEVTCVVVDVSHEDPEVKFNWYVDGVEVHNAKTKPREEQYNSTYRVVSVLTVLHQDWLNGKEYKCKVSNKALPAPIEKTISKAKGQPREPQVYTLPPCREEMTKNQVSLSCAVKGFYPSDIAVEWESNGQPENNYKTTPPVLDSDGSFFLVSKLTVDKSRWQQGNVFSCSVMHEALHNHYTQKSLSLSPGK
chain 2: QVQLVQSGAEVKKPGSSVKVSCKVSGGSISSYYWSWVRQAPGQGLEWIGRIYITGNTNYNPSLKDRVTMTVDTSTSTHYMELSSLRSEDTAVYYCAREGPKLGIFDYWGQGTLVTVSSASTKGPSVFPLAPSSKSTSGGTAALGCLVKDYFPEPVTVSWNSGALTSGVHTFPAVLQSSGLYSLSSVVTVPSSSLGTQTYICNVNHKPSNTKVDKKVEPKSC
heavy: EVQLVESGGGLVQPGGSLRLSCAASGFTFEYFGLQWVRQAPGKGLEWIGYTSSGGNYEYYEETLKGRFTISRDNAKNSLYLQMNSLRAEDTAVYYCARTKTGDYWGQGTLVTVSSASTKGPSVFPLAPSSKSTSGGTAALGCLVKDYFPEPVTVSWNSGALTSGVHTFPAVLQSSGLYSLSSVVTVPSSSLGTQTYICNVNHKPSNTKVDKKVEPKSCDKTHTCPPCPAPEAAGAPSVFLFPPKPKDTLMISRTPEVTCVVVDVSHEDPEVKFNWYVDGVEVHNAKTKPREEQYNSTYRVVSVLTVLHQDWLNGKEYKCKVSNKALPAPIEKTISKAKGQPREPQVCTLPPSREEMTKNQVSLWCLVKGFYPSDIAVEWESNGQPENNYKTTPPVLDSDGSFFLYSKLTVDKSRWQQGNVFSCSVMHEALHNHYTQKSLSLSPGK
light: DIQMTQSPSSLSASVGDRVTITCRASQDIGNSLTWYQQKPGKAPKRVIFGATGLAAGVPSRFSGSGSGTDFTLTISSLQPEDFATYYCLQSKQYPYTFGQGTKLEIKRTVAAPSVFIFPPSDEQLKSGTASVVCLLNNFYPREAKVQWKVDNALQSGNSQESVTEQDSKDSTYSLSSTLTLSKADYEKHKVYACEVTHQGLSSPVTKSFNRGEC
IDO1 in CD14+ monocytes EC50: 0.015 nM
PD-L1 in CD14+ monocytes EC50 (human whole blood): 0.006 nM
pSTAT1 in CD3+ T cells EC50 (human whole blood): 0.233 nM
